# In the emibetuzumab library of Makowski et al. (2022):
# B1: VH:VL chains; a variant is named by its letters at X, in order (parent)
# chain 1: QVQLVQSGAEVKKPGASVKVSCKASGYTFTDYXMHWVRQAPGQGLEWMGXVNPNXXXTTYNQKFEGRVTMTTDTSTSTAYMELRSLRSDDTAVYYCARXNXLDXWGQGTTVTVSS
# chain 2: DIQMTQSPSSLSASVGDRVTITCSVSSSVSSIYLHWYQQKPGKAPKLLIYSTSNLASGVPSRFSGSGSGTDFTLTISSLQPEDFATYYCQVYSGYPLTFGGGTKVEIK
# Variants of: B1
# Assay: yeast display scFab, FACS + sequencing
# Summary of the method: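 For the non-specific binding call, a heavy-chain CDR mutant scFab library on the yeast surface was FACS-sorted and samples from two replicates were deep sequenced. Cells were labelled with anti-Myc and either biotinylated ovalbumin (260 μg/mL in PBSB, 3 h, room temperature) or soluble membrane proteins (130 μg/mL, 20 min on ice), with gates on the top 25% and bottom 10% of binders. With membrane protein and ovalbumin samples pooled, a sequence in ≥3 of 4 positive samples and no negatives was scored positive, and the converse rule scored negatives.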
row,Variant,non-specific binding call
1,VAGTGDWA,no binding
2,VAGTGDWY,no binding
3,VAGTGDWV,no binding
4,VAGAGDSV,no binding
5,DAGKSDWY,no binding
6,DAGGGDVA,no binding
7,DAGGGDVV,no binding
8,YAGTGAVA,no binding
9,VAGGDDVA,no binding
10,VAGGDDVF,no binding
11,VAEKGSGA,no binding
12,SAGGGAGD,no binding
13,VAEKGDGV,no binding
14,VAEKGDGA,no binding
15,VAGGGAAV,no binding
16,YAGGGDWA,no binding
17,YAGRGDLA,no binding
18,YAGRGDLD,no binding
19,YAGRGDLV,no binding
20,DAGGGAVY,no binding
21,DAGGGAVV,no binding
22,DAGGGAVA,no binding
23,VAGTGFWV,binds

row,Variant,non-specific binding call
1,DAGGGDGA,no binding
2,DAGKGSVD,no binding
3,FAGGGDWV,no binding
4,FAGGGFAV,binds
5,SAGRGFGF,binds
6,YAGGTSSD,no binding
7,YAGRGASA,no binding
8,DAGGASGV,no binding
9,FAGRGSAD,binds
10,SAGEGDGV,no binding
11,VAGGDDGF,no binding
12,VAGGDDGA,no binding
13,FAGGGDAV,no binding
14,YAGKGAWV,binds
15,DAGGADWA,no binding
16,VAGAGAGA,no binding
17,VAGRGSAA,binds
18,DAGGGAAV,no binding
19,VAGGAYLY,no binding
20,FAGRGYSD,binds
21,DAGRSDLV chain 1 R67H,no binding
22,VAEKGFLV,binds
23,VAGTGDLY,no binding

row,Variant,non-specific binding call
1,VAGTGDLA,no binding
2,YAGRTAGV,binds
3,YAGKTAWS,binds
4,DAGKGAVV,no binding
5,DAGKGAVY,no binding
6,YAGRADVV,no binding
7,DAGAAAGD,no binding
8,DAERTDGV,no binding
9,VAGGDFGV,no binding
10,SAGRGDGS,no binding
11,VAGGDAVV,no binding
12,VAGGDAVA,no binding
13,DAGEGFVA,no binding
14,YAGEGFGV,no binding
15,YAGTGFWV,binds
16,DAGGDDGA,no binding
17,VAGRSDLV chain 1 R67H,no binding
18,YAGGDFAY,no binding
19,DAGAADGA,no binding
20,VAGKGVLD,binds
21,DAEKDSGA,no binding
22,VAEKGSSA,no binding
23,DAERDSGV,no binding

row,Variant,non-specific binding call
1,DAEKGAWA,no binding
2,FAGRGVGD,binds
3,YAGAAAVD,binds
4,VAEKGFGA,no binding
5,DAGTAFSS,binds
6,YAGEASAV,no binding
7,VAGGDDAV,no binding
8,VAEKGDAA,no binding
9,SAGEGDVF,no binding
10,SAGEGDVY,no binding
11,VAEKGAGD,no binding
12,SAGRSDLV chain 1 R67H,no binding
13,FAGGSFAS,binds
14,DAGGAAVA,no binding
15,DAGGAAVS,no binding
16,YAGEGDGA,no binding
17,VAGTDDWV,no binding
18,DAGGAAGD,no binding
19,DAGGAAGV,no binding
20,DAGTDAGD,no binding
21,VAGTGASD,no binding
22,DAGGDAGD,no binding
23,DAGGDDVY,no binding

row,Variant,non-specific binding call
1,AAGGNAWS chain 1 G66S,no binding
2,YAEKDFGV,no binding
3,VAGTGDGY,no binding
4,VAGTGDGV,no binding
5,VAGTGDGA,no binding
6,YAGKGFGA,binds
7,FAGGGDLV,no binding
8,VAGTGSAD,no binding
9,FAGGGDVY,no binding
10,VAETAAAA,no binding
11,FAGRAAWA,binds
12,VAGRSFGS,binds
13,DAGKGALF,no binding
14,VAGGDAAA,no binding
15,SAGKDDLA,no binding
16,DAGGGAGD,no binding
17,DAGGAAAV,no binding
18,DAGGAAAD,no binding
19,DAGGAAAA,no binding
